# According to patent US20130171217A1, “ENZYMATIC PERACID GENERATION FOR USE IN SKIN CARE PRODUCTS” (E I DU PONT DE NEMOURS AND COMPANY, priority 2010, published 2013):
# Test: One-step enzymatic PAA generation, HPLC peracetic acid assay
# Format: biochemical
# Experimental: Determination of the peracetic acid (PAA) concentration in the reaction mixtures was performed according to the method described by Pinkernell et al., Anal. Chem. 1997, 69(17):3623-3627. Aliquots (0.040 mL) of the reaction mixture were removed at predetermined times and mixed with 0.960 mL of 5 mM phosphoric acid in water; adjustment of the pH of the diluted sample to less than pH 4 immediately terminated the reaction. The resulting solution was filtered using an ULTRAFREE® MC-filter unit (30,000 Normal Molecular Weight Limit (NMWL), Millipore cat #UFC3LKT 00) by centrifugation for 2 min at 12,000 rpm. An aliquot (0.100 mL) of the resulting filtrate was transferred to 1.5-mL screw cap HPLC vial (Agilent Technologies, Palo Alto, Calif.; #5182-0715) containing 0.300 mL of deionized water, then 0.100 mL of 20 mM MTS (methyl-p-tolyl-sulfide) in acetonitrile was added, the vials capped, and the contents briefly mixed prior to a 10 min incubation at ca. 25° C. in the absence of light. To each vial was then added 0.400 mL of acetonitrile and 0.100 mL of a solution of triphenylphosphine (TPP, 40 mM) in acetonitrile, the vials re-capped, and the resulting solution mixed and incubated at ca. 25° C. for 30 min in the absence of light. To each vial was then added 0.100 mL of 10 mM N,N-diethyl-m-toluamide (DEET; HPLC external standard) and the resulting solution analyzed by HPLC (Waters Alliance 2695, Waters Corporation; MA).
# Supelco Discovery C8 column (10 cm×4.0-mm, 5 μm) (cat. #569422-U) w/precolumn Supelco Supelguard Discovery C8 (Sigma-Aldrich; cat #59590-U); 10 microliter injection volume; gradient method with CH3CN (Sigma-Aldrich; #270717) and deionized water at 1.0 mL/min and ambient temperature:
# The first method (referred to herein as the “one-step approach”) comprises combining different amounts of at least one CE-7 perhydrolase with triacetin (an example of a suitable ester substrate) and hydrogen peroxide to generate peracetic acid. Hair bundles were inserted into “one step approach” solutions for 15 min immediately after mixing the enzyme solution with triacetin solution (final concentration was about 100 mM) and H2O2 solution (final concentration was about 250 mM). The hair samples were rinsed with water and dried. The method was repeated for another 15 times (total application was 16 times). In one experiment, two perhydrolase enzymes were used, i.e., untargeted T. maritima variant C277S (“C277S”; “PAH”; SEQ ID NO: 293) and “C277S-HC263” (SEQ ID NO: 288). The concentration of peracetic acid in solution after 15 min was evaluated by HPLC.
Molecule,PAA generated (0.05 mg/mL enzyme),"PAA (0.05 mg/mL enzyme, urea 0 wt %, after 15 min)","PAA (0.25 mg/mL enzyme, urea 0 wt %, after 15 min)","PAA (0.5 mg/mL enzyme, urea 0 wt %, ~100 mM triacetin, ~250 mM H2O2, after 15 min)","perhydrolase activity lower than C277S (same weight basis, under testing condition)","PAA (0.05 mg/mL enzyme, urea 10 wt %, after 15 min)","PAA (0.25 mg/mL enzyme, urea 10 wt %, after 15 min)","PAA (0.5 mg/mL enzyme, urea 10 wt %, after 15 min)"
C277S-HC263: C277S variant of Thermotoga maritima perhydrolase fused via a flexible linker to hair-binding domain HC263 (protein) MAFFDLPLEELKKYRPERYEEKDFDEFWEETLAESEKFPLDPVFERMESHLKTVEAYDVTFSGYRGQRIKGWLLVPKLEEEKLPCVVQYIGYNGGRGFPHDWLFWPSMGYICFVMDTRGQGSGWLKGDTPDYPEGPVDPQYPGFMTRGILDPRTYYYRRVFTDAVRAVEAAASFPQVDQERIVIAGGSQGGGIALAVSALSKKAKALLCDVPFLCHFRRAVQLVDTHPYAEITNFLKTHRDKEEIVFRTLSYFDGVNFAARAKIPALFSVGLMDNISPPSTVFAAYNYYAGPKEIRIYPYNNHEGGGSFQAVEQVKFLKKLFEKGGPGSGGAGSPGSAGGPGSPSAQSQLPDKHSGLHERAPQRYGPEPEPEPEPIPEPPKEAPVVIEKPKPKPKPKPKPPAHDHKNQKETHQRHAAGSGGGGSPHHHHHH,about 0.2 wt %,1983 ppm,3948 ppm,4132 ppm,2-3 times,–,–,–
"C277S: non-targeted C277S variant of the Thermotoga maritima perhydrolase, un-targeted control (protein, listed as Thermotoga maritima) MAFFDLPLEELKKYRPERYEEKDFDEFWEETLAESEKFPLDPVFERMESHLKTVEAYDVTFSGYRGQRIKGWLLVPKLEEEKLPCVVQYIGYNGGRGFPHDWLFWPSMGYICFVMDTRGQGSGWLKGDTPDYPEGPVDPQYPGFMTRGILDPRTYYYRRVFTDAVRAVEAAASFPQVDQERIVIAGGSQGGGIALAVSALSKKAKALLCDVPFLCHFRRAVQLVDTHPYAEITNFLKTHRDKEEIVFRTLSYFDGVNFAARAKIPALFSVGLMDNISPPSTVFAAYNYYAGPKEIRIYPYNNHEGGGSFQAVEQVKFLKKLFEKG",–,–,–,–,–,6448 ppm,14053 ppm,13656 ppm
